Assay results taken from publication doi:10.1101/570390.

Target: mature KLK4 from recombinant pro-KLK4 expressed in Sf9 cells, activated with thermolysin (human) (UniProt Q9Y5K2)
Test: enzyme inhibition assay

UniProt Q9Y5K2, sequence (Q9Y5K2 31-254): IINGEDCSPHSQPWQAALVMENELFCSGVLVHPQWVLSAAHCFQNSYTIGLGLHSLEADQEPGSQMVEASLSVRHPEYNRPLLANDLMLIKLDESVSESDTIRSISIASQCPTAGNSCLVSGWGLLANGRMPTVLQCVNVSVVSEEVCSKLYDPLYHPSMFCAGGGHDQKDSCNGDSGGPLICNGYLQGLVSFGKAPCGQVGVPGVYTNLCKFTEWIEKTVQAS

Row | Ki | Substance
1 | 0.04 nM | SFTI-FCQR(Asn14), bicyclic (peptide)
2 | 3.48 nM | SFTI-FCQR(Asn14)[1,14], monocyclic (1,14-acyclic backbone, disulfide-bridged) (peptide)
